Test results published in patent US20020164696A1 (CHR HANSEN A S, published 2002).
Square brackets hold non-standard residues; d marks the D form. Ends that are not written are not given here. Phe(4-NO2) = N[C@@H](Cc1ccc([N+](=O)[O-])cc1)C(=O)O

Key:
[1] = target: T1, synthetic peptide corresponding to bovine kappa-CN (bovine); assay: cleavage kinetics of the synthetic peptide at pH 5.6, Lineweaver-Burke plots; binding inferred from KM
T1 construct: Synthetic substrate peptide, free N- and C-terminus as printed; also called Bt kappa-CN; bovine kappa-CN peptide
T1 peptide: HPHPHLS[Phe(4-NO2)]MAI
Method: (§1) Two synthetic peptidases, which correspond to the chymosin sensitive regions of camel- and bovine κ-casein (CN), were proteolytically cleaved with bovine and camel chymosin, respectively. KM and kcat were determined at pH 5.6. Additionally, temperature and pH optima of these reactions were measured. The two following synthetic peptides were used in this study:
(§2) The measurement of samples was repeated 3 to 6 times, the Michaelis-Menten and the turnover values were determined from Lineweaver-Burke plots with weighted linear regression of data.

[2] = target: T2, synthetic peptide corresponding to camel kappa-CN (camel); assay: as above
T2 construct: Synthetic substrate peptide, free N- and C-terminus as printed; also called Cd kappa-CN; Cd kappa-CN peptide
T2 peptide: RPRPRPS[Phe(4-NO2)]IAI
Method: as §1, §2

substrate binding relative to bovine chymosin [1]: ~2 fold | substrate binding relative to bovine chymosin [2]: ~2 fold
B1: recombinant Camelus dromedarius chymosin (enzyme, UniProt Q9GK11 59-381, looked up)
chain: GKVAREPLTSYLDSQYFGKIYIGTPPQEFTVVFDTGSSDLWVPSIYCKSNVCKNHHRFDPRKSSTFRNLGKPLSIHYGTGSMEGFLGYDTVTVSNIVDPNQTVGLSTEQPGEVFTYSEFDGILGLAYPSLASEYSVPVFDNMMDRHLVARDLFSVYMDRNGQGSMLTLGAIDPSYYTGSLHWVPVTLQQYWQFTVDSVTINGVAVACVGGCQAILDTGTSVLFGPSSDILKIQMAIGATENRYGEFDVNCGNLRSMPTVVFEINGRDYPLSPSAYTSKDQGFCTSGFQGDNNSELWILGDVFIREYYSVFDRANNRVGLAKAI
notes: mature; also called Cd chymosin; camel chymosin
